According to PMC8131632 (2021):

B1: REGN10987 Fab-TD (Fab, V domains shown)
VH: QVQLVESGGGVVQPGRSLRLSCAASGFTFSNYAMYWVRQAPGKGLEWVAVISYDGSNKYYADSVKGRFTISRDNSKNTLYLQMNSLRTEDTAVYYCASGSDYGDYLLVYWGQGTLVTVSS
VL: QSALTQPASVSGSPGQSITISCTGTSSDVGGYNYVSWYQQHPGKAPKLMIYDVSKRPSGVSNRFSGSKSGNTASLTISGLQSEDEADYYCNSLTSISTWVFGGGTKLTVL
B2: REGN10987 Ig-TD (antibody, V domains shown)
VH: QVQLVESGGGVVQPGRSLRLSCAASGFTFSNYAMYWVRQAPGKGLEWVAVISYDGSNKYYADSVKGRFTISRDNSKNTLYLQMNSLRTEDTAVYYCASGSDYGDYLLVYWGQGTLVTVSS
VL: QSALTQPASVSGSPGQSITISCTGTSSDVGGYNYVSWYQQHPGKAPKLMIYDVSKRPSGVSNRFSGSKSGNTASLTISGLQSEDEADYYCNSLTSISTWVFGGGTKLTVL
B3: REGN10987 mIg-TD (antibody, V domains shown)
VH: QVQLVESGGGVVQPGRSLRLSCAASGFTFSNYAMYWVRQAPGKGLEWVAVISYDGSNKYYADSVKGRFTISRDNSKNTLYLQMNSLRTEDTAVYYCASGSDYGDYLLVYWGQGTLVTVSS
VL: QSALTQPASVSGSPGQSITISCTGTSSDVGGYNYVSWYQQHPGKAPKLMIYDVSKRPSGVSNRFSGSKSGNTASLTISGLQSEDEADYYCNSLTSISTWVFGGGTKLTVL
B4: REGN10933 Ig-TD (antibody, V domains shown)
VH: QVQLVESGGGLVKPGGSLRLSCAASGFTFSDYYMSWIRQAPGKGLEWVSYITYSGSTIYYADSVKGRFTISRDNAKSSLYLQMNSLRAEDTAVYYCARDRGTTMVPFDYWGQGTLVTVSS
VL: DIQMTQSPSSLSASVGDRVTITCQASQDITNYLNWYQQKPGKAPKLLIYAASNLETGVPSRFSGSGSGTDFTFTISGLQPEDIATYYCQQYDNLPLTFGGGTKVEIK
B5: REGN10933 IgG1 (antibody, V domains shown)
VH: QVQLVESGGGLVKPGGSLRLSCAASGFTFSDYYMSWIRQAPGKGLEWVSYITYSGSTIYYADSVKGRFTISRDNAKSSLYLQMNSLRAEDTAVYYCARDRGTTMVPFDYWGQGTLVTVSS
VL: DIQMTQSPSSLSASVGDRVTITCQASQDITNYLNWYQQKPGKAPKLLIYAASNLETGVPSRFSGSGSGTDFTFTISGLQPEDIATYYCQQYDNLPLTFGGGTKVEIK
B6: REGN10933 mIg-TD (antibody, V domains shown)
VH: QVQLVESGGGLVKPGGSLRLSCAASGFTFSDYYMSWIRQAPGKGLEWVSYITYSGSTIYYADSVKGRFTISRDNAKSSLYLQMNSLRAEDTAVYYCARDRGTTMVPFDYWGQGTLVTVSS
VL: DIQMTQSPSSLSASVGDRVTITCQASQDITNYLNWYQQKPGKAPKLLIYAASNLETGVPSRFSGSGSGTDFTFTISGLQPEDIATYYCQQYDNLPLTFGGGTKVEIK
B7: REGN10933 Fab-TD (Fab, V domains shown)
VH: QVQLVESGGGLVKPGGSLRLSCAASGFTFSDYYMSWIRQAPGKGLEWVSYITYSGSTIYYADSVKGRFTISRDNAKSSLYLQMNSLRAEDTAVYYCARDRGTTMVPFDYWGQGTLVTVSS
VL: DIQMTQSPSSLSASVGDRVTITCQASQDITNYLNWYQQKPGKAPKLLIYAASNLETGVPSRFSGSGSGTDFTFTISGLQPEDIATYYCQQYDNLPLTFGGGTKVEIK
B8: CB6/Junshi Fab-TD (Fab, V domains shown)
VH: EVQLVESGGGLVQPGGSLRLSCAASGFTVSSNYMSWVRQAPGKGLEWVSVIYSGGSTFYADSVKGRFTISRDNSMNTLFLQMNSLRAEDTAVYYCARVLPMYGDYLDYWGQGTLVTVSS
VL: not shown
B9: CB6/Junshi mIg-TD (antibody, V domains shown)
VH: EVQLVESGGGLVQPGGSLRLSCAASGFTVSSNYMSWVRQAPGKGLEWVSVIYSGGSTFYADSVKGRFTISRDNSMNTLFLQMNSLRAEDTAVYYCARVLPMYGDYLDYWGQGTLVTVSS
VL: not shown
B10: CB6/Junshi Ig-TD (antibody, V domains shown)
VH: EVQLVESGGGLVQPGGSLRLSCAASGFTVSSNYMSWVRQAPGKGLEWVSVIYSGGSTFYADSVKGRFTISRDNSMNTLFLQMNSLRAEDTAVYYCARVLPMYGDYLDYWGQGTLVTVSS
VL: not shown

Molecular target: SARS-CoV-2 spike receptor binding domain (RBD), Avi-tagged and biotinylated (SARS-CoV-2, UniProt P0DTC2 319-541, biotin (Avi tag, by BirA))
Assay: ELISA

Binder	IC50
B1	0.02 nM
B2	0.12 nM
B3	0.4 nM
B4	0.045 nM
B5	1.45 nM
B6	0.18 nM
B7	0.012 nM
B8	0.03 nM
B9	0.29 nM
B10	0.1 nM
